Laboratory results reported in article PMC314469, “Protein Interaction Networks by Proteome Peptide Scanning” (PLoS Biology, 2004).

target: Sho1 SH3 (SHO1_YEAST), P40073; assay: SPOT array
Sequence (P40073 295-366): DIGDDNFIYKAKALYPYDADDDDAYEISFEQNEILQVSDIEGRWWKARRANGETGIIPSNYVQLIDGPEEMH

| Binder | normalised SPOT signal, Boehringer light units (BLU); mean over the file's lines of this peptide |
| --- | --- |
| ATRPSSPMRHKSIS [585-598 protein kinase domain] | 401 |
| VHGPGIPMKSLEVA [381-394 MAL-activator protein] | 198 |
| YQYPQTPSKVDISI [243-256 Product of gene unknown] | 196 |
| YILPKNPFRVPSEM [125-138 Hypothetical ORF] | 290 |
| AAWPLDPARERWTR [269-282 Hypothetical ORF] | 137 |
| AAQPPLPSRNVASG [446-459 Actin binding protein] | 81.6 |
| VTLPTGPAKIIWEK [510-523 cytochrome P450 lanosterol 14a-demethylase] | 136 |
| SQRPGSPGRYKLVR [174-187 gamma subunit of translational initiation factor eIF-2] | 178 |
| AMPPTLPHRDWKDY [84-97 component of peroxisomal import machinery] | 321 |
| AKSPLLPFKLLSDR [330-343 Hypothetical ORF] | 160 |
| VLEPSKPYKKNPFM [663-676 Hypothetical ORF] | 121 |
| AGSPIRPYKQRYLL [526-539 heat shock transcription factor] | 86.2 |
| APAPLDPFKTGGNN [849-862 " contains 3 SH3 domains, interacts with Bee1p"] | 681 |
| VQQPEDPLRVLGEY [143-156 Hypothetical ORF] | 128 |
| TTRPAPPSKAKDVA [347-360 Hypothetical ORF] | 763 |
| VKHPMKPFRLMLTD [43-56 (putative) histone deacetylase] | 691 |
| VENPFLPAKEERTG [910-923 159-kDa nucleoporin with coiled-coil domain and repeated motifs typical of nucleoporins] | 157 |
| VPPPNVPKKDKREV [659-672 Ubiquitin-specific protease] | 11300 |
| VSTPPVPKKFQEIF [9-22 cox1 pre-mRNA splicing factor] | 235 |
| YGPPTDPRKQKQAK [36-49 neutral trehalase] | 198 |

| Binder | normalised SPOT signal, Boehringer light units (BLU); mean over the file's lines of this peptide |
| --- | --- |
| YSLPMHPGRWWVHT [222-235 " 2,3-oxidosqualene-lanosterol cyclase"] | 453 |
| AFVPTNPWRSSMSL [315-328 invertase (sucrose hydrolyzing enzyme)] | 620 |
| VHDPNIPLRPKEII [643-656 Ubiquitin-protein ligase] | 128 |
| SILPAFPSKSSNEQ | 73.6 |
| VVSPSHPFKQLQKI [146-159 (putative) involved in cell wall biogenesis] | 150 |
| ALKPKTPSKAPRKR [65-78 origin recognition complex subunit 2] | 830 |
| YPSPAQPPKSPLLN [448-461 " involved in bud formation, has SH3 domain"] | 128 |
| VTLPISPSRASISF [70-83 Hypothetical ORF] | 120 |
| YMQPIIPGKTESFE [151-164 similar to ubiquitin activating enzyme (E1)] | 165 |
| TTAPRGPKKAQPAQ [176-189 transcriptional activator of the SKN7 mediated 'two-component' regulatory system] | 45.2 |
| ARDPILPYRLVKDR [345-358 Product of gene unknown] | 118 |
| AVDPENPKKLASKF [384-397 Hypothetical ORF] | 83.2 |
| ASLPVGPRKNGMNV [26-39 Hypothetical ORF] | 215 |
| VFSPTNPLRIKIAR [326-339 putative calcium channel] | 102 |
| VSDPYVPTRNTFNY [142-155 ubiquitin-mediated 26S proteasome subunit] | 392 |
| VSIPFDPSKDTFDH [741-754 P-type ATPase] | 94.6 |
| WKPPDLPIRLRKRP [502-515 Ubiquitin-specific protease] | 3660 |
| VIRPGVPTKFTKKQ [1275-1288 Glutamate synthase (NADPH)] | 513 |
| VDAPINPTKILTFI [375-388 Weak similarity to Pta1p (pre-tRNA processing protein)] | 174 |
| AKQPKEPKKRTTRR [7-20 11-kDa nonhistone chromosomal protein] | 103 |

| Binder | normalised SPOT signal, Boehringer light units (BLU); mean over the file's lines of this peptide |
| --- | --- |
| AIEPGVPSRYSDET [91-104 Hypothetical ORF] | 125 |
| APTPPAPSRSEKLH [727-740 Hypothetical ORF] | 258 |
| ALVPFAPFKLLKDR [340-353 Triacetylfusarinine C transporter] | 129 |
| WSYPYEPLRVLQVG [17-30 Hypothetical ORF] | 898 |
| SGFPLLPSKRGVTA [165-178 Hypothetical ORF] | 644 |
| VETPPKPIKKDVRF [535-548 " cytoskeletal protein, similar to arrestins"] | 8540 |
| VVIPPVPSRYSDER [95-108 Product of gene unknown] | 58 |
| YTLPLLPGKGGFRI [228-241 Hypothetical ORF] | 509 |
| VHGPGVPVKTLEIA [386-399 MAL-activator protein] | 88 |
| ATVPSAPYRKQIIS [11-24 nuclear pore protein] | 122 |
| VKRPLSPTRINGKS | 160 |
| WNLPWSPFKITTIM [95-108 Translation initiation factor eIF-2B epsilon subunit] | 1240 |
| APLPPQPRKHDKTP [587-600 Protein Kinase C] | 152 |
| ATTPAIPTKSDEAE | 169 |
| VTVPKLPFKLAVNK [181-194 integral membrane protein] | 129 |
| VDPPFMPFRDAGYS [120-133 soluble tyrosine-specific protein phosphatase] | -0 |
| YSNPQTPLRSLAGL [1404-1417 Type 1 membrane protein with EF hand motif] | 217 |
| YKIPVVPPRETYFA [507-520 involved in cell wall biogenesis] | 195 |
| VFLPTAPSKHMDFA [478-491 TATA binding protein-associated factor (TAF)] | 342 |
